Molecular target: pooled human IgG (human)
Assay: cell-based or functional assay
Further: test concentration or dose not given here.

Binder	Enzyme Activity Endpoint Assay (purified): Fab′2 [ng/µL]	Enzyme Activity Endpoint Assay (purified): Fc [ng/µL]	Enzyme Activity Endpoint Assay (purified): IgG [ng/µL]	Enzyme Activity Endpoint Assay (purified): scIgG [ng/µL]
PRT-214 (enzyme) MEVVEVWPYGQNPNGKTEILSQTEDSESLQRLRDIEDFQAEKKKEGVVYTKWLDGVDVDDHDFRKITDGDIEYYATPLLNGRGFYDINKDFNRDSDKCAAAVAANMFHYWLDRNRDNVDRFLKQNPEKHGIIELPDGQLKLSDFLNTYESDYGYRDKSKLFDFISNNFNGPVWTDKLLDNYINGYAYNYKYGRTIEDPTKNTSKINFFKEVFDEKLLTNNHSIRNYNEFSELLREALYTGKAIGLSYGPAGLRHSLGHIISVWGADLDEDGNVVAIYVTDSDDKKLTIGDERVGLKRYKVSSDDENRARLTAYEEKDNTGGEIRGLYTLDTGKQAWADYFDKTEQTGTDQAEQLEHHHHHH	467	27	1650	0
PRT-210 (enzyme) MEVVEVWPYGQNPNGKTEILSQTEDSESLQRLRDIEDFQAEKKKQNVVYTKWLDGVTVDDHDFRKITDGNTAYYATPLLNGRGFYDINKDFNRDSDKCAAAVAANMFHYWLDQNRDNVDRFLKQNPEKHGIIELPDGQLKLSDFLNTYESDDGYRDKSKLFDFISNNFNGPVWTDKLLDNYINGYAYNYKYGRTIEDPTKNTSKINFFKEVFNEKLLTNNHSIRNQNEFSDLLSEALYTGKAIGLSYGPAGLRHSLGHIISVWGADFDADGNVVAIYVTDSDDKKLTIGDERVGLKRYKISSDDEGRARLTAYTEKHNTGGQIRGLYTLDTGKQEWADYFDKTEQTGTDQAEQLEHHHHHH	0	87	1780	25
PRT-213 (enzyme) MEVVEVWPYGQNPNGKTEILSQTEDSESLQRLRDIEDFQAEKKKEGVVYTKWLDGVTVKDHDFRKIVDGNIEYYATPLLNGRGWYDINKDFNRDSDKCAAAVAANMFHYWLDRNRDNVDRFLKQNPEKHGIIELPDGQLKLSDFLNTYESDNGYRDKSKLFDFISKNFNGPVWTDKLLDNYINGYGYNYKYGRTIEDPTKNTSKINFFKKVFNEKILTDIHSIRNQNEFSDLLSEALYTGKAIGLSYGPAGLRHSLGHIISVWGADFDEDGNVVAIYVTDSDDKKLTIGDERVGLKRYKVSTDDEGRARLTAYTETDNTGGQVRGLYTLDTGTQAWADYFDKTEQTGTDQAEQLEHHHHHH	0	244	1290	301
PRT-215 (enzyme) MEVVEVWPYGQNPNGKTEILSQTEDSESLQRLRDIEDFQAEKKKEGVVYTKWLDGVTVKDHDFRKIVDGNIEYYATPLLNGRGWYDINKDFNRDSDKCAAAVAANMFHYWLDRNRDNVDRFLKQNPEKHGIIELPDGQLKLSDFLNTYESDNGYRDKSKLFDFISKNFNGPVWTDKLLDNYINGYGYNYKYGRTIEDPTKNTSKINFFKKVFNEKILTDIHSIRNQNEFSDLLSEALYTGKAIGLSYGPAGLRHSLGHIISVWGADFDEDGNVVAIYVTDSDDKKLTIGDERVGLKRYKVSTDDEGRARLTAYTETDNTGGQVRGLWTLDTGTQAWADYFDKTEQTGTDQAEQLEHHHHHH	73	310	708	309
PRT-212 (enzyme) MEVVEVWPYGQNPNGKTEILSQTEDSESLQRLRDIEDFQAEKKKEGVVYTKWLDGVDVKDHDFRKIVDGNIEYYATPLLNGRGFYDINKDFNQDSDKCAAAVAANMFHYWLDRNRDNVDRFLSQNPEKHGIIELPDGQLKLSDFLNTYESDDGYRDKSKLFDLISNNFNGPVWTDKLLDNYINGYAYNYKYGRTIEDPTKNTSKINFFKEVFNEKILTNIHSIRNQNEFSDKLSEALYTGKAIGLSYGPAGLRHSLGHIISVWGADLDEDGNVVAIYVTDSDDKKLTIGDERVGLKRYKVSTDDEGRLRLTAYEETDNTGGEIRGIWTLDTGKQAWADYFDKTEQTGTDQAEQLEHHHHHH	13	435	1270	599
PRT-216 (enzyme) MEVVEVWPYGQNPNGKTEILSQTEDSESLQRLRDIEDFQAEKKKENVVYTKWLDGVDVDDHDFRKIVDGNTEYYATPLLNGRGWYDINKDFNRDSDKCAAAVAANMFHYWLDQNRDNIDRFLRQSPEKHGIIELPDGQLKLSDFLNTYESDDGYRDKSKLFDFISNNFNGPVWTDKLLDNYINGYGYNYKYGRTIEDPTKNNSKINFFKKVFNGKILTDNHSIRNYNTFSDLLSEALYTGKAIGLSYGPAGLRHSLGHIISVWGADLDADGNVVAIYVTDSDDKKLTIGDERVGLKRYKISYDDENRARLTAYEENDNTGGQIRGLETLDTGKQAWADYFDKTEQTGTDQAEQLEHHHHHH	0	0	1660	0
PRT-218 (enzyme) MEVVEVWPYGQNPNGKTEILSQTEDSESLQRLRDIEDFQAEKKKQGVVYTKWLDGVNVDDHEFRKITDGNTEYYATPLLNGRGYYDINKDFNRDSDKCAAAVAANMFHYWLDRNRDNVDRFLRQNPDKHGIIELPDGQLKLSDFLNTYESDHDYRDKSKLFDFISNNFNGPVWTNKLLDNYINGYGYNYKYGRTIEDPTKNTSKINFFKEVFNGKLLTDNHSIRNKNEFSSKLSEALYTGKAIGLSYGPAGLRHSLGHIISVWGADLDEDGNVVAIYVTDSDDKKLTIGDERVGLKRYKVSYDDEGRARLTAYEETDNTGGEIRGLYTLDTGKQYWADYFDKTEQTGTDQAEQLEHHHHHH	0	39	1780	0
PRT-208 (enzyme) MEVVEVWPYGQNPNGKTEILSQTEDSESLQRLRDIEDFQAEKKKENVVYTKWLDGVTVKDHDFRKIVDGNIAYYATPLLNGRGFYDINKDFNRDSDKCAAAVAANMFHYWLDINRDNVDRFLRQNPEKHGIIELPDGQLKLSDFLNTYESDDGYRDKSKLFDFISNNFNGPVWTDKLLDNYINGYGYNYKYGRTIEDPTKNTSKINFFKEVFNEKILTDNHSIRDQNEFSDLLSEALYTGKAIGLSYGPAGLRHSLGHIISVWGADLDADGNVVAIYVTDSDDKKLTIGDERVGLKRYKISYDDEGRARLTAYEEKDNTGGQIRGLWTLDTGKQAWADYFDKTEQTGTDQAEQLEHHHHHH	0	153	1700	113
PRT-217 (enzyme) MEVVEVWPYGQNPNGKTEILSQTEDSESLQRLRDIEDFQAEKKKQNVVYTKWLDGVTVDDSDFRKIKDGNTEYYATPLLNGRGFYDINKDFNRDSDKCAAAVAANMFHYWLDRNRDNVDRFLKQNPEKHGIIELPDGQLKLSDFLNTYESDNNYRDKSKLFDFISKNFNGPVWTNKLLDNYINGYGYNYKYGRTIEDPTKNTSKINFFKKVFNEKILTNVHQIFNYNEFSTLLSEALYTGKAIGLSYGPGGLRHSLGHIISVWGADLDADGNVVAIYVTDSDDKKLTIGDERVGLKRYKISTDDEGRARLTAYTETDNTGGQVRGIYTLDTGKQAWADYFDKTEQTGTDQAEQLEHHHHHH	0	86	1580	41
PRT-207 (enzyme) MEVVEVWPYGQNPNGKTEILSQTEDSESLQRLRDIEDFQAEKKKEGVVYTKWLDGVDVDDHDFRKIVDGNIAYYATPLLNGRGFYDINKDFNRDSDKCAAAVAANMFHYWLDRNRDNVDRFLKQNPEKHGIIELPDGQLKLSDFLNTYESDNGYRDKSKLFDFISNNFNGPVWTDKLLDNYINGYAYNYKYGRTIEDPTKNTSKINFFKEVFNEKILTNNHSIRNYNTFSDLLSEALYTGKAIGLSYGPAGLRHSLGHIISVWGADLDADGNVVAIYVTDSDDKKLTIGDERVGLKRYKVSSDDENRLRLTAYEETHNTGGQIRGIWTLDTGKQAWADYFDKTEQTGTDQAEQLEHHHHHH	0	249	1290	287
PRT-209 (enzyme) MEVVEVWPYGQNPNGKTEILSQTEDSESLQRLRDIEDFQAEKKKQGVVYTKWLDGVDVDDHDFRKIVDGNIAYYATPLLNGKGFYDINKDFNRDSDKCAAAVAANMFHYWLDQNRDNVDRFLRQNPEKHGIIELPDGQLKLSDFLNTYESDNGYRDKSKLFDFISNNFNGPVWTDKLLDNYINGYAYNYKYGRTIEDPTKNTSKINFFKDVFNEKILTNIHSIRNYNTFSNLLSEALYTGKAIGLSYGPAGLRHSLGHIISVWGADLDEDGNVVAIYVTDSDDKKLTIGDERVGLKRYKISTDDEGRARLTAYEENDNTGGEIRGLYTLDTGKQAWADYFDKTEQTGTDQAEQLEHHHHHH	0	124	1670	71
PRT-211 (enzyme) MEVVEVWPYGQNPNGKTEILSQTEDSESLQRLRDIEDFQAEKKKQGVVYTKWLDGVDVDDHDFRKIVDGNIAYYATPLLNGKGFYDINKDFNRDSDKCAAAVAANMFHYWLDQNRDNVDRFLRQNPEKHGIIELPDGQLKLSDFLNTYESDNGYRDKSKLFDFISNNFNGPVWTDKLLDNYINGYAYNYKYGRTIEDPTKNTSKINFFKDVFNEKILTNIHSIRNYNTFSNLLSEALYTGKAIGLSYGPAGLRHSLGHIISVWGADLDEDGNVVAIYVTDSDDKKLTIGDERVGLKRYKISTDDEGRARLTAYEENDNTGGEIRGLWTLDTGKQAWADYFDKTEQTGTDQAEQLEHHHHHH	0	68	2190	0
